Patent publication US20120269817A1 (Bayer, published 2012)
Positions count from the first letter of the chain named.

T1: human tissue factor pathway inhibitor (TFPI) (human, UniProt P10646 29-304, limits assumed)
T1 sequence (looked up): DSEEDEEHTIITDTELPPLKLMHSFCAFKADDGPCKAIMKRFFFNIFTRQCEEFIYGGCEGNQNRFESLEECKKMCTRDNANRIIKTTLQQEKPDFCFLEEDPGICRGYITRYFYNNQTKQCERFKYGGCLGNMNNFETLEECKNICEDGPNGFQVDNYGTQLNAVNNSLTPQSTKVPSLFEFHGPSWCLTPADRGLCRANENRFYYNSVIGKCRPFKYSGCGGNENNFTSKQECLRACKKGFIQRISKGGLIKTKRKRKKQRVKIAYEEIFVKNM

T2: mouse tissue factor pathway inhibitor (TFPI) (mouse, UniProt O54819 29-289, limits assumed)
T2 construct: Bought protein; also called mouse TFPI; mTFPI
T2 sequence (looked up): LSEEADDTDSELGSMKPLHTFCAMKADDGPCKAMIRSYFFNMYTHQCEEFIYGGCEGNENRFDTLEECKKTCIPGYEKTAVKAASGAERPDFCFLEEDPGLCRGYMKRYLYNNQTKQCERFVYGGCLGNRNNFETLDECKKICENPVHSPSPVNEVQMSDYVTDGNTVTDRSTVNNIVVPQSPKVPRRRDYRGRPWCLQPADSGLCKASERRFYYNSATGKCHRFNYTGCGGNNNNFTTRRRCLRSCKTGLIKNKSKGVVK

T3: human TFPI K1 (human, UniProt P10646 29-107, limits assumed)
T3 construct: domain: K1; also called Kunitz domain 1
T3 sequence (looked up): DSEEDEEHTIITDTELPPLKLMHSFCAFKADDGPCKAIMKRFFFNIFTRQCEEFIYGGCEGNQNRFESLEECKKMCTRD

B1: TP-4B7 Fab (Fab, V domains shown)
VH: QVQLQQSGPGLVKPSQTLSLTCAISGDSVSSNSAAWSWIRQSPGRGLEWLGIIYKRSKWYNDYAVSVKSRITINPDTSKNQFSLQLNSVTPEDTAVYYCARWHSDKHWGFDYWGQGTLVTVSS
VL: DIVMTQSPLSLPVTPGEPASISCRSSQSLVFSDGNTYLNWYLQKPGQSPQLLIYKGSNRASGVPDRFSGSGSGTDFTLKISRVEAEDVGVYYCQQYDSYPLTFGQGTKVEIKR
notes: Human Fab from HuCal Gold, expressed in E. coli TG1
B2: TP-2A2 Fab (Fab, V domains shown)
VH: QVQLVESGGGLVQPGGSLRLSCAASGFTFSNNAMNWVRQAPGKGLEWVSTISYDGSNTYYADSVKGRFTISRDNSKNTLYLQMNSLRAEDTAVYYCARQAGGWTYSYTDVWGQGTLVTVSS
VL: DIELTQPPSVSVAPGQTARISCSGDNIRTYYVHWYQQKPGQAPVVVIYGDSKRPSGIPERFSGSNSGNTATLTISGTQAEDEADYYCQSYDSEADSEVFGGGTKLTVLG
notes: as for B1
B3: TP-3C1 Fab (Fab, V domains shown)
VH: QVQLVESGGGLVQPGGSLRLSCAASGFTFSSYSMHWVRQAPGKGLEWVSGISYSSSFTYYADSVKGRFTISRDNSKNTLYLQMNSLRAEDTAVYYCARALGGGVDYWGQGTLVTVSS
VL: DIALTQPASVSGSPGQSITISCTGTSSDLGGFNTVSWYQQHPGKAPKLMIYSVSSRPSGVSNRFSGSKSGNTASLTISGLQAEDEADYYCQSYDLNNLVFGGGTKLTVLG
notes: Human Fab from HuCal Gold, expressed in E. coli TG1; Shares its VL with TP-2G9 and its VH with TP-3F2
B4: TP-2G9 Fab (Fab, V domains shown)
VH: QVQLVESGGGLVQPGGSLRLSCAASGFTFNSYAMTWVRQAPGKGLEWVSAIKSDGSNTYYADSVKGRFTISRDNSKNTLYLQMNSLRAEDTAVYYCARNDSGWFDVWGQGTLVTVSS
VL: B3 VL
notes: as for B1
B5: TP-2E5 Fab (Fab, V domains shown)
VH: QVQLQQSGPGLVKPSQTLSLTCAISGDSVSSNSAAWSWIRQSPGRGLEWLGMIFYRSKWNNDYAVSVKSRITINPDTSKNQFSLQLNSVTPEDTAVYYCARVNANGYYAYVDLWGQGTLVTVSS
VL: DIQMTQSPSSLSASVGDRVTITCRASQPIYNSLSWYQQKPGKAPKLLIYGVSNLQSGVPSRFSGSGSGTDFTLTISSLQPEDFAVYYCLQVDNLPITFGQGTKVEIKR
notes: as for B1
B6: TP-2B3 chimeric IgG (antibody, V domains shown)
VH: QVQLQQSGPGLVKPSQTLSLTCAISGDSVSSNSAAWGWIRQSPGRGLEWLGMIYYRSKWYNSYAVSVKSRITINPDTSKNQFSLQLNSVTPEDTAVYYCARTMSKYGGPGMDVWGQGTLVTVSS
VL: DIVLTQSPATLSLSPGERATLSCRASQNIGSNYLAWYQQKPGQAPRLLIYGASTRATGVPARFNGSGSGTDFTLTISSLEPEDFAVYYCQQLNSIPVTFGQGTKVEIKR
notes: Chimeric IgG: human variable regions on mouse constant regions, murine IgG1 isotype, made in HKB11 cells
B7: TP-3G1 Fab (Fab, V domains shown)
VH: QVQLQQSGPGLVKPSQTLSLTCAISGDSVSSNSGGWGWIRQSPGRGLEWLGLIYYRSKWYNAYAVSVKSRITINPDTSKNQFSLQLNSVTPEDTAVYYCARYLGSNFYVYSDVWGQGTLVTVSS
VL: DIQMTQSPSSLSASVGDRVTITCRASQGISSYLHWYQQKPGKAPKLLIYGASTLQSGVPSRFSGSGSGTDFTLTISSLQPEDFATYYCQQQNGYPFTFGQGTKVEIKR
notes: as for B1
B8: TP-3G3 Fab (Fab, V domains shown)
VH: QVQLVESGGGLVQPGGSLRLSCAASGFTFSSYSMSWVRQAPGKGLEWVSSISSSSSNTYYGDSVKGRFTISRDNSKNTLYLQMNSLRAEDTAVYYCARMHYKGMDIWGQGTLVTVSS
VL: DIQMTQSPSSLSASVGDRVTITCRASQNIHSHLNWYQQKPGKAPKLLIYDASSLQSGVPSRFSGSGSGTDFTLTISSLQPEDFAVYYCQQYYDYPLTFGQGTKVEIKR
notes: as for B1
B9: TP-2C7 Fab (Fab, V domains shown)
VH: QVQLQQSGPGLVKPSQTLSLTCAISGDSVSSNSAAWGWIRQSPGRGLEWLGIIYYRSKWYNHYAVSVKSRITINPDTSKNQFSLQLNSVTPEDTAVYYCARSNWSGYFDYWGQGTLVTVSS
VL: B8 VL with N28D, H30R, S31N, H32N, N34A, D50A, Y91R, Y92N, D93G, Y94F
notes: as for B1
B10: TP-3A4 Fab (Fab, V domains shown)
VH: QVQLVESGGGLVQPGGSLRLSCAASGFTFSSYWMHWVRQAPGKGLEWVSSISYDSSNTYYADSVKGRFTISRDNSKNTLYLQMNSLRAEDTAVYYCARYGGMDYWGQGTLVTVSS
VL: DIELTQPPSVSVAPGQTARISCSGDNLRDKYASWYQQKPGQAPVLVIYSKSERPSGIPERFSGSNSGNTATLTISGTQAEDEADYYCSSYTLNPNLNYVFGGGTKLTVLG
notes: as for B1
B11: TP-2A8-IgG (antibody, V domains shown)
VH: QVQLVESGGGLVQPGGSLRLSCAASGFTFRSYGMSWVRQAPGKGLEWVSSIRGSSSSTYYADSVKGRFTISRDNSKNTLYLQMNSLRAEDTAVYYCARKYRYWFDYWGQGTLVTVSS
VL: DIELTQPPSVSVAPGQTARISCSGDNLRNYYAHWYQQKPGQAPVVVIYYDNNRPSGIPERFSGSNSGNTATLTISGTQAEDEADYYCQSWDDGVPVFGGGTKLTVLG
notes: as for B6

Assays:
BSA = molecular target: T4, BSA (bovine, UniProt P02769 25-607); experiment: ELISA
T4 construct: also called bovine serum albumin
Description: (§1) To select antibody clones that bind to human TFPI, Fab genes of the phage clones from the second and third round of panning were subcloned into a bacterial expression vector and expressed in E. coli strain TG1. The bacterial lysate was added to the wells of the human TFPI-coated Maxisorp plates. After washing, HRP-conjugated goat anti-human Fab was used as a detection antibody and the plates were developed by adding AmplexRed (Invitrogen) with hydrogen peroxide. A signal of at least five-fold higher than the background was considered as positive. The cross reactivity of the anti-human TFPI antibodies to mouse TFPI was determined by a similar mouse TFPI-binding ELISA. The plates were coated with mouse TFPI (R&D System), BSA and lysozyme. The later two antigens were used as negative controls.

[1] = molecular target: T1, human tissue factor pathway inhibitor …; experiment: cell-based or functional assay
[2] = molecular target: T1, human tissue factor pathway inhibitor …; experiment: ELISA, Fab on coated TFPI
Description: as §1
(§2) Purified Fab antibodies were used to determine EC₅₀ of anti-TFPI antibodies to human or mouse TFPI. EC₅₀ was assessed in an ELISA, similarly as described above. The results were analyzed using SoftMax. The binding affinity of anti-TFPI antibodies was determined in a Biacore assay. Briefly, the antigen, either human or mouse TFPI, was immobilized on the CM5-chips using the amine coupling kit (GE HealthCare) according to the instructions of the manufacturer. The amount of immobilized TFPI was adjusted to the mass of the antigen to give approximate 300 RU. The antibody Fabs were analyzed in mobile phase and at least five different concentrations (0.1, 0.4, 1.6, 6.4 and 25 nM) of the purified antibodies were used in the Biacore assay. The kinetics and binding affinity were calculated using Biacore T100 Evaluation software.

[3] = molecular target: T2, mouse tissue factor pathway inhibitor …; experiment: ELISA, Fab on coated TFPI
Description: as §1, §2

[4] = molecular target: T1, human tissue factor pathway inhibitor …; experiment: Biacore, TFPI on CM5 chip, Fab in mobile phase
Description: as §2

[5] = molecular target: T2, mouse tissue factor pathway inhibitor …; experiment: Biacore, TFPI on CM5 chip, Fab in mobile phase
Description: as §2

human TFPI K1 = molecular target: T3, human TFPI K1; experiment: Western blots and ELISA
Description: Western blots and ELISA were used to determine which domain(s) of TFPI of the inhibitory antibodies bind. Recombinant full length human TFPI or TFPI domains were used for these studies. ELISA was similar to Example 3. In the Western Blot, human TFPI or domains were run on 4-12% Bis-Tris SDS PAGE running buffer MES (Invitrogen, Carlsbad, Calif.) and then transferred to cellulose membrane. After incubation with inhibitory antibodies for 10 min, the membrane was washed three times using SNAPid system (Millipore, Billerica, Mass.). A HRP conjugated donkey anti-mouse antibody (Pierce, Rockford, Ill.) at 1 to 10,000 dilution was incubated with the membrane for 10 min. After a similar wash step, the membrane was developed using SuperSignal substrate (Pierce, Rockford, Ill.). Whereas the control anti-Kunitz domain 1 antibody binds to full length TFPI, truncated TFPI and domains, inhibitory anti-TFPI antibodies only bind to TFPI containing Kunitz domain 2.

T4 sequence (P02769 25-607 limits assumed): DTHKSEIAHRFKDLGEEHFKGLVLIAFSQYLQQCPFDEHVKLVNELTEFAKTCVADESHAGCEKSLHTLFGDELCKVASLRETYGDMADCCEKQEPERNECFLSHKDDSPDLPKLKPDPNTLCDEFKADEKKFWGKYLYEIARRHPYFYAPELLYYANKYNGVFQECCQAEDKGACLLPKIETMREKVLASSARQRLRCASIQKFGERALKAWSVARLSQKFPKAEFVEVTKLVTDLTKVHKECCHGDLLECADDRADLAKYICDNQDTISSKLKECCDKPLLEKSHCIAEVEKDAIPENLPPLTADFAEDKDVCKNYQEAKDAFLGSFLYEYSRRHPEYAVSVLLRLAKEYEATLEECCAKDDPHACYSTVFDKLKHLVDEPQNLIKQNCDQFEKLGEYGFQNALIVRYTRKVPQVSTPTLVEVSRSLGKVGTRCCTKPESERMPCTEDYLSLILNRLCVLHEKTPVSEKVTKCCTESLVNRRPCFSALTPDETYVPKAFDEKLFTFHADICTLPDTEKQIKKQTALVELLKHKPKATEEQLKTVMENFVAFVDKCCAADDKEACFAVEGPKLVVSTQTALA

| Binder | binding result (BSA) | % inhibition of hTFPI activity [1] | dPT in hemoA plasma [1] | EC50 [2] | EC50 [3] | Kd [4] | Kd [5] | binding result (human TFPI K1) |
| --- | --- | --- | --- | --- | --- | --- | --- | --- |
| B1 | no binding | 100% | 53.9 s | 0.74 nM | 2.64 nM | 15.8 nM | 51.8 nM | – |
| B2 | no binding | 23% | 70.9 s | 0.62 nM | 1040 nM | 6.57 nM | 29.8 nM | – |
| B3 | no binding | 0% | 72.3 s | 32.8 nM | 108 nM | 21.6 nM | 33.6 nM | – |
| B4 | no binding | 0% | 82.7 s | 10.8 nM | 194 nM | 48.5 nM | 35.7 nM | – |
| B5 | no binding | 0% | 79 s | 792 nM | 202 nM | 115 nM | 25.2 nM | – |
| B6 | – | – | – | – | – | – | – | no binding |
| B7 | no binding | 93% | 75.1 s | 74.4 nM | 8.68 nM | 1140 nM | 49.1 nM | – |
| B8 | no binding | 15% | 70.7 s | 33.6 nM | 47.1 nM | 16 nM | 25.7 nM | – |
| B9 | no binding | 0% | 62.5 s | 0.6 nM | 0.6 nM | 2.01 nM | 9.33 nM | – |
| B10 | no binding | 0% | 72.3 s | 42.8 nM | 327 nM | 21.6 nM | 23.7 nM | – |
| B11 | – | – | – | – | – | – | – | no binding |
